Data published in patent US20240025971A1.

Key:
Experiment in all cases: cell-based or functional assay
[1] = biological target: SARS-CoV-2 Alpha (B.1.1.7) full-length Spike protein (SARS-CoV-2) (UniProt P0DTC2)
[2] = biological target: SARS-CoV-2 Delta-plus (B.1.617.2.1) full-length Spike protein (SARS-CoV-2) (UniProt P0DTC2)
[3] = biological target: SARS-CoV-2 Epsilon (B.1.427/9) full-length Spike protein (SARS-CoV-2) (UniProt P0DTC2)
[4] = biological target: SARS-CoV-2 Beta (B.1.351) full-length Spike protein (SARS-CoV-2) (UniProt P0DTC2)
[5] = biological target: SARS-CoV-2 Gamma (P.1.B.1.1.28) full-length Spike protein (SARS-CoV-2) (UniProt P0DTC2)
[6] = biological target: SARS-CoV-2 Delta (B.1.617.2) full-length Spike protein (SARS-CoV-2) (UniProt P0DTC2)

Measured: Pseudovirus Neutralization

Anti-Nucleocapsid (Neg Control) (antibody)
> 50 µg/mL: all assays above
